# Reference: the DeepSol protein solubility set
# Experiment: soluble on expression in E. coli; label from the status in PepcDB or PDB records
row,Sequence,soluble on expression in E. coli
1,MQSRWNDTEAETFAAEARARGEPAELGLRVYSSRLIGQDPDLVLHGGGNTSVKIPSPEGMLIHVKGSGWDLGDIEAPGLPAMHLAPLLETRDVPQMSDEEMVALLRAHLLDPAAPTPSVEALLHAYMPQAFVDHTHATAILALADQADMEPVVAELFGGRVGWVPYVMPGYALSHACREAFARDPSVEGLWLEQHGLFTFAETARESYERMIGFVTMAEEHLAARGVPLPGPEANDGTAPERLAADLRAALAARGALGADPSLDFRSSPSIRSYLGRADLPELARRGTATPDHVIRLKPFPMLLEPTAGPAEIEAALDAFEAEYRAYFDRNAPNASEAKIMLDPLPRVVLVPGLGGWGVGANGKAARIAGDLLEQTSRVVNAAETYRRFTPISEGDLFDMEYWSLEQAKLRKA,not soluble
2,MQSSLSFSCGVKSTMAKSPVEVNLIPIEATPETFAEYGQVIEASRDGAGYGPNDAQLDLSKGIPRLYILRLKETPLGFFKITHHAKVTQCLGSIGGDIWYMGVAKPSLIEDDDDGRRVDTVKAKSGHLYIPPEVEEIRVFRFSGPKFVKLHRGTWHAGPLFSGSSIMDFYNLELSNTNVVDHTSHDFTKNNGVSFRFDT,not soluble
3,MQTEVKETPRYAIVASVQLPEVSDAEFEASLTELSELAKTLGFQVVQTFVQKRSSFDRTAYMGVGKLDEISMYVKRGIRADELEDEPQELDASSVAIDALLVDHEISPSQARNLELAVGCEVMDRTMVILEIFHRNARSRAARAQVEIARLGYMAPRLREAAKLAGPQGRQRSGMGGRGAGESHTELDRRKVRDRIAELQREIVAMELERKTQRARRLERQGLGLGGVSLVGYTNAGKSTLMRALTGSEVLVANKLFATLDTTVRVLHPESVPRVLVSDTVGFIKNLPHGLVASFKSTLEEALDASLLLHAIDASDPGFQRQLEVTDEVLREIGADDVPRIRVFNKIDHVGDEAEQAAWTAELRQRYPGCVVMSALRPEDVASLRAAIVAFFQQDLVEDELLLPWSAQQLRGEIYSHCQVLEERAEEEGCWFRVRGEPEKLRSLREQLNPGSQGREKEYWEALEHHHHHH,not soluble
4,MQTRATPAPAAPLERFNAAPAEEAAGTLLACLHSRAWADRLVAHRPYPDLPALLAAADEAAYDLSSDDLSEALAAETLPALPEDTYAAAHTALSAAHAAYESRFGHVFVISLDGLSPEETLNHVLAAIRSRLANDPDEERLVASEELRRLAGGRVRRLLGARGTARPATDDPHPANHTKPPPPLEHHHHHH,soluble
5,MQTSPLLTQLMEALRCLPGVGPKSAQRMAFTLLQRDRSGGMRLAQALTRAMSEIGHCADCRTFTEQEVCNICSNPRRQENGQICVVESPADIYAIEQTGQFSGRYFVLMGHLSPLDGIGPDDIGLDRLEQRLAEEKITEVILATNPTVEGEATANYIAELCAQYDVEASRIAHGVPVGGELEMVDGTTLSHSLAGRHKIRF,soluble
6,MQVDDWIVGLEVEIFTFDGKEYRGIVYTYDADANCVVLARKSQDSLKSDLRILKASLVKNINVLGRSNVDQLPQQLSPLNLEALKMREEQALQKARKDLARTGVGVSQQAQEIFDALCKTLPCQWEEDSIVIFENIKLKKPYRVEDLEGSEIEAVNRVKVVLENELQKLQRRNT,soluble
7,MQVFIMRHGDAALDAASDSVRPLTTNGCDESRLMANWLKGQKVEIERVLVSPFLRAEQTLEEVGDCLNLPSSAEVLPELTPCGDVGLVSAYLQALTNEGVASVLVISHLPLVGYLVAELCPGETPPMFTTSAIASVTLDESGKGEFNWQMSPCNLKMAKAI,soluble
8,MQVLTTSRKPGRKTRRFAKVLARFFNWKYVNRGKLSLEDLAGIAERFWIISEVKGNPAILNLYERGEKTLEVSFTLSNVNKIKMDDSPAVFKGKAPIDPLVFGAIPQTKAGLKLTRKVEFRKKVVVKGDEWLFFYDDEMLFKLRILKISRSSR,not soluble
9,MQVNFSSFLDNFFAMQVCREMTRNDVKFAISPQFLRISRHPHIP,not soluble
10,MQVRRAVLGAAHVERSLANLTPFNEEFQEMITRHAWGDIWTRPGLPRHTRSLVTIAMLIGMNRNEELKLHLRAAKNNGVSRDEIKEVIMQSAIYCGIPAANATFHLAESVWDELGVESQQASR,not soluble
11,MQWSKEEEAAARKKVKENSAVRVLLEEQVKYEREASKYWDTFYKIHKNKFFKDRNWLLREFPEILPVDQKPEEKARESSWDHVKTSATNRFSRMHCPTVPDEKNHYEKSSGSSEGQSKTESDFSNLDSEKHKKGPMETGLFPGSNATFRILEVGCGAGNSVFPILNTLENSPESFLYCCDFASGAVELVKSHSSYRATQCFAFVHDVCDDGLPYPFPDGILDVILLVFVLSSIHPDRTLFI,soluble
12,MQYKDENGVNEPSRRRLLKVIGALALAGSCPVAHAQKTQSAPGTLSPDARNEKQPFYGEHQAGILTPQQAAMMLVAFDVLASDKADLERLFRLLTQRFAFLTQGGAAPETPNPRLPPLDSGILGGYIAPDNLTITLSVGHSLFDERFGLAPQMPKKLQKMTRFPNDSLDAALCHGDVLLQICANTQDTVIHALRDIIKHTPDLLSVRWKREGFISDHAARSKGKETPINLLGFKDGTANPDSQNDKLMQKVVWVTADQQEPAWTIGGSYQAVRLIQFRVEFWDRTPLKEQQTIFGRDKQTGAPLGMQHEHDVPDYASDPEGKVIALDSHIRLANPRTAESESSLMLRRGYSYSLGVTNSGQLDMGLLFVCYQHDLEKGFLTVQKRLNGEALEEYVKPIGGGYFFALPGVKDANDYFGSALLRV,soluble
13,MQYKLILNGKTLKGETTTEAVDAATAEKVFKQYANDNGVDGEWTYDDATKTFTVTEGSHHHHHHMHRDSCPLDCKVYVGNLGNNGNKTELERAFGYYGPLRSVWVARNPPGFAFVEFEDPRDAADAVRELDGRTLCGCRVRVELSNGEKR,soluble
14,MRAIVFVKATKSSEEGVMPTTELMEAMGKFNEELVNAGIMQSGDGLHPSSKGKRVVFDGDSRTVVNGPFPHTNELVAGFWIWKVKDMDEAVEWVKRCPNPMLEKSEIEIRPMFEMEDFGDAVTPEIAAHVEELRARVGKQ,not soluble
15,MRAIYATDLSAASEAAIQNETCLECLGRIGVDTIHLVTVIPSNVHAGMPGMNFSKRREQGLTRYQNVMEDAGFDTETHVVRGTPHRRINGIAEAEKADVTIIGSRGQSPLNNRVIGSTARNLARTTVVPLLVNRIERSTDEPDVLREHLFQRVLYATDFSENATRAFDAFQYLRHATQEATLVHVESPKDATSEADPAEQLASLADTLSQWDIETNVEVRRGDPAEEILDVEAAVTPTTTLVGSRGQSRMRRLLLGSVSEDIIAQATGNVYLVPPPRTA,not soluble
16,MRALILGGTGEGRDVAAILHVAGWRVTSSLAGRVSNPKLPVGEVRIGGFGGPAGLTQWLLREGVEVIIDATHPFAERISASAAEASRATGIPLIALHRPEWKPRPRDRWIPVTSMQEAADKAARDYHHIFLTIGRQQLAPFAHDAHNLYVVRAVEPPQVALPQRHRLILSRGPFTLESEKKLMIDNQIDCVVTKNSGGPLTHAKLDAARDLGIDVVMVQRPQLPKVTHVATSAAEVAEIIDSL,not soluble
17,MRALSSLLLTLLLAGPAFAEPSAELQEPLAGWRYSGLLDRTEQDRVAYPTPPIDRGIQRNRTLIEGQLKAIGHLRQPHSLSVNGNPLNLYTDEQGRFARPYAFGAGSNSVEVRSSEGKPLKRVQFYEANLNKTPPRIRVVLGWDDPKAELDMHIITPDGQHAFFGHPGLTNGGGLDPDGVDGPGPEMFTMTAPLRGTYLIYVNYWGNFGSGGYNFDEGSNQNEVITSQINLILNENTVDEKRETFIVPMRAIGDLLLVKSFNYLEHHHHHH,soluble
18,MRALVVGAGIGGLVAARALRRAGLEVLVLEAHTYPGGLAGTFTHRGYRFDAGATLLSGFAPGGPMALVAEALGVCLPVEPFPEGFPLMEVHLPRGPLLRPVGREAEREAQRDFFGPRVLPFWRWQEERAKALLRLAPRLPWPPEREELLRLLALLPELFPLLPDLFLKAAHRAPQDPHFLRFLDAQLLIASQAEAKRTYALYAALALDLPHMGPALVPGGVGRVAEALAEGLPVRYKARAERLLLGEGRALAVEVAYGGRRRGEREVVEADLFVLDVPLAPLLGLPLKVPEDAWGAFVVHGVLPFRAPPPYFRQNAREKPFAFLSLRPEGEKTAFALSLHTPLALWEGLSPEEYGRLKARWGEMALSLGEALLPGLREAELLLFGTPRTYARFAGRAWVGGFPQTHPFRFPRVRPFPNVFRVGEGVFPGQSVPAAALSGLRAARLALEALGLAGSGGEARPSFPPFPLEHHHHHH,not soluble
19,MRARIYQPARNAMTSGMAKTRKWVLEYAPGSAREVDPLMGWTSSSDTQSQVRLRFDSKEEALDYARAHGIDAVVTEPHKRKPNLRARGYGENFATDRRGPWTH,soluble
20,MRDEISSRIRRLPAGMSGGRAPDFALAVYGGAFDPPHPGHESVIRRALLCAERVALVPSHRHAFGKRMGDFELRCRWLARLARRIDPRRVYCEPIEAGLMPDRPAVYSIDLLEALAARSGLASARIALLIGADNEAELPRFERAAELCWRFGRLVAEERLPLHSSMIRQRLREGLAVPEAWCLPEVKDELHCYGGERQAV,not soluble
21,MRDIQQVLERWGAWVANNHEDVTWSSIAAGFKGLIPSKVKSRPQCCDDDAMVICGCMARLNRNNNDLHDLLVDYYVFGMTFMTLARKHGCSDGYIGKKLQKAEGVVEGMLMMLGVRLEMDKYIEHP,not soluble
22,MRDLLNDLSEGLSHPDPILRAQIQMQKPLPKRFYKDVTVADVEEGGFTILLDGKPLRTPAKKPLVAPSRALADLLRDEWDAQKEVVNPVVMPVSRHVNTAIDGIASDTQAVFEDILRFSSSDLLCYRAGDPEALVARQTDYWDPVLDWATNVLGARFILVEGVMHRDQPREAIAAFAVTLKKYDTPIALAALHTMTSLTGSAILALALAEGELTLEEAWALAHLDEDWTAEQWGEDEEALERRAVRLIDMRAALNVLESLKSAS,soluble
23,MRDMIYGEMALVSHTHPAAVGSTTCYEKNQQKQQQVQQIPTQPQVAHVSSNAILAAAQPFYPPPVQDSQPDRPIGYGAFGVVWSVTDPRSGKRVALKKMPNVFQNLASCKRVFREIKMLSSFRHDNVLSLLDILQPANPSFFQELYVLTELMQSDLHKIIVSPQALTPDHVKVFVYQILRGLKYLHTANILHRDIKPGNLLVNSNCILKICDFGLARTWDQRDRLNMTHEVVTQYYRAPELLMGARRYTGAVDIWSVGCIFAELLQRKILFQAAGPIEQLQMIIDLLGTPSQEAMKYACEGAKNHVLRAGLRAPDTQRLYKIASPDDKNHEAVDLLQKLLHFDPDKRISVEEALQHRYLEEGRLRFHSCMCSCCYTKPNMPSRLFAQDLDPRHESPFDPKWEKDMSRLSMFELREKMYQFVMDRPALYGVALCINPQSAAYKNFASSSVAQASELPPSPQAW,not soluble
24,MRDNASLAHTQWNCKYHIVFVPKYRRQVIYGKIKKDIGQILRKLCEMKGVEIIEASLCPDHIHMLVSIPPKISVSSFMGYLKGKSSLMIFDRHANLKYKYGNRHFWCRGYYVDTVGRNRKAIEQYIRRQLQEDIASDQISLNEYIDPFTGERVNKSKK,soluble
25,MRDQMLPSIILFDGVCNFCNYWVQFIIKRDPQATFQFASLQSEVGQELLEKHSIDRSTDSVVLIMEGQAFVCSDAVLKIVAQLDSPIRWLKWAVIFPRFLRDFIYRIVARNRYKWFGKRDECQIPTKEQRSRFLLEHHHHHH,soluble
